Reference: publication PMC1074310

Target: T1, tumor necrosis factor receptor-associated factor 2 (TRAF2) fused to CFP, YFP or mRFP, Q12933
T1 chain: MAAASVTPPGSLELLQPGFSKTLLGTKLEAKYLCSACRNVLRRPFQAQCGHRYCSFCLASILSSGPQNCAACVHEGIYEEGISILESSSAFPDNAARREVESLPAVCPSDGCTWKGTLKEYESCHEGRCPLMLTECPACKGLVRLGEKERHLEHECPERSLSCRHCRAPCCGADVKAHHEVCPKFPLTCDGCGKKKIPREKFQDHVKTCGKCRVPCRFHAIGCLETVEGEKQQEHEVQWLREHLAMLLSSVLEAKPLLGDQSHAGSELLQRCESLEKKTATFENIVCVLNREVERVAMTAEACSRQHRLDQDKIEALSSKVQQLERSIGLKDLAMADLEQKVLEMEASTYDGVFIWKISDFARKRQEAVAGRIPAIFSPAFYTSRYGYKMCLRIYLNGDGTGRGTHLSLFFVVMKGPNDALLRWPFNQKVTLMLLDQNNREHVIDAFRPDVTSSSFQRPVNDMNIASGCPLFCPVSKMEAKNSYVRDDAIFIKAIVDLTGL
Experiment: FRET or BRET
Conditions: remark: other sources report otherwise

B1: tumor necrosis factor receptor-associated factor 2 (TRAF2) fused to CFP, YFP or mRFP, Q12933 1-501 (natural protein)
chain: MAAASVTPPGSLELLQPGFSKTLLGTKLEAKYLCSACRNVLRRPFQAQCGHRYCSFCLASILSSGPQNCAACVHEGIYEEGISILESSSAFPDNAARREVESLPAVCPSDGCTWKGTLKEYESCHEGRCPLMLTECPACKGLVRLGEKERHLEHECPERSLSCRHCRAPCCGADVKAHHEVCPKFPLTCDGCGKKKIPREKFQDHVKTCGKCRVPCRFHAIGCLETVEGEKQQEHEVQWLREHLAMLLSSVLEAKPLLGDQSHAGSELLQRCESLEKKTATFENIVCVLNREVERVAMTAEACSRQHRLDQDKIEALSSKVQQLERSIGLKDLAMADLEQKVLEMEASTYDGVFIWKISDFARKRQEAVAGRIPAIFSPAFYTSRYGYKMCLRIYLNGDGTGRGTHLSLFFVVMKGPNDALLRWPFNQKVTLMLLDQNNREHVIDAFRPDVTSSSFQRPVNDMNIASGCPLFCPVSKMEAKNSYVRDDAIFIKAIVDLTGL
FRET1 (CFP→YFP) MFI, cells with CFP-TRAF2, YFP-TRAF2 and mRFP: 10.9 MFI | FRET3 (CFP→mRFP) MFI, cells with CFP-TRAF2, YFP and mRFP-TRAF2: 32.7 MFI | stoichiometry N: 3 | two-step FRET (CFP→YFP→mRFP) MFI, cells with CFP-TRAF2, YFP-TRAF2 and mRFP-TRAF2: 58.6 MFI
